The text below walks through data of patent publication US20080227698A1, “OLIGOPEPTIDES FOR TREATMENT OF OSTEOPOROSIS AND OTHER BONE DISEASES AND METHODS THEREOF” (Washington University, priority 2005, published 2008).

For assay [1], the target named is T1, LRP6 (Homo sapiens, UniProt O75581). Briefly: LRP6-mediated ^125I-Mesd degradation in LRP6-transduced HT1080 cells. The note with it: ^125I-Mesd 5 nM, 4 hours at 37° C. Also noted: plasmid pCS-Myc-hLRP6 containing the full-length human LRP6 cDNA; HA; expressed in transfected cells; host or cells: human HT1080 cells, stably transduced (pLNCX2 retroviral vector). The format is cell-based. As to the method:
Ligand degradation was performed using the methods as described (Li, Y., J. Biol. Chem. 275: 17187-17194, 2000). Briefly, 2×10^5 cells were seeded into 12-well dishes 1 day prior to assay. Pre-warmed assay buffer (minimal Eagle's medium containing 0.6% BSA with radioligand, 0.6 ml/well) was added to cell monolayers in the absence or the presence of unlabeled 500 nM RAP or 500 nM Mesd, followed by incubation for 4 hours at 37° C. Thereafter, the medium overlying the cell monolayers was removed and proteins were precipitated by addition of BSA to 10 mg/ml and trichloroacetic acid to 20%. Degradation of radioligand was defined as the appearance of radioactive fragments in the overlying medium that were soluble in 20% trichloroacetic acid. Kinetic analysis of endocytosis LRP6-transduced HT1080 cells were plated in 12-well plates at a density of 2×10^5 cells/well and used after overnight culture. Cells were rinsed twice in ice-cold assay buffer (minimal Eagle's medium containing 0.6% BSA), and ^125I-anti-HA IgG was added at 1 nM final concentration in cold assay buffer (0.5 ml/well). The binding of ^125Ianti- HA IgG was carried out at 4° C. for 90 minutes with gentle rocking. Unbound ^125I-anti-HA IgG was removed by washing cell monolayers three times with cold assay buffer. Ice-cold stop/strip solution (0.2 M acetic acid, pH 2.6, 0.1 M NaCl) was added to one set of plates without warming up and kept on ice. The remaining plates were then placed in a 37° C. water bath and 0.5 ml assay buffer prewarmed to 37° C. was quickly added to cell monolayers to initiate internalization. After each time point, the plates were quickly placed on ice and the assay buffer was replaced with cold stop/strip solution. ^125I-anti-HA IgG that remained on the cell surface was stripped by incubation of cell monolayers with cold stop/strip solution for a total of 20 minutes (0.75 ml for 10 minutes, twice) and counted. Cell monolayers were then solubilized with low-SDS lysis buffer and counted. […] The fraction of internalized ^125I-anti-HA IgG after each time point was calculated and plotted. […]

Assay [2] has as its target T1, LRP6. The assay can be described thus: Cell surface Myc-DKK1 binding and immunodetection on LRP6-transduced HT1080 cells. On the set-up: plasmid pCS-Myc-hLRP6 containing the full-length human LRP6 cDNA; HA; expressed in transfected cells; host or cells: human HT1080 cells, stably transduced (pLNCX2 retroviral vector). As to conditions: 1 μM Mesd, room temperature 60 minutes, immunofluorescence. The source says: Values are the means of triple determinations with the s.d. indicated by error bars. Bar, 10 μm.

Another assay concerns cytosolic β-catenin. Briefly: Cytosolic β-catenin level by western blotting in LRP6-transduced HT1080 cells. It is filed as cell-based, human. As to conditions: 0.5 to 5 nM Mesd, 2 hours at 37° C. (data not shown). The method, then: […] After washing in ice-cold PBS, cells were collected and homogenized in a glass Dounce homogenizer in buffer consisting of 100 mM Tris-HCl pH 7.4, 140 mM NaCl, 2 mM DTT, 2 mM PMSF, and 1X Complete™ protease inhibitors (500 μl/well). The homogenate was centrifuged for 10 minutes at 500 g, and the supernatant was further centrifuged at 100,000 g at 4° C. for 90 minutes. The resulting supernatant was designated the cytosolic fraction. The β-catenin levels were then examined by western blotting using β-catenin-specific antibody from Cell Signaling Technology. The immunoreactive proteins were detected using the ECL system. Films showing immunoreactive bands were scanned with a Kodak Digital Science DC120 Zoom Digital Camera and band intensities were analyzed with Kodak Digital Science 1D Image Analysis Software.
β-catenin is a key molecule in the Wnt/β-catenin signaling pathway. A cytosolic pool of β-catenin interacts with DNA-binding proteins and participates in Wnt signal transduction (Hinck, L., J. Cell Biol. 125, 1327-13401994; Gottardi, C. J., J. Cell Biol. 153: 1049-1060, 2001; Klingelhofer, J., Oncogene 22, 1181-1188, 2003). To determine whether Mesd binding to cell surface LRP6 directly regulates Wnt signaling, the effects of Mesd binding on cytosolic P-catenin levels in HT1080-LRP6 cells were studied. […]
On the technique in general: A western blot detects proteins with antibodies after separation by electrophoresis.

T1 sequence (O75581 20-1613): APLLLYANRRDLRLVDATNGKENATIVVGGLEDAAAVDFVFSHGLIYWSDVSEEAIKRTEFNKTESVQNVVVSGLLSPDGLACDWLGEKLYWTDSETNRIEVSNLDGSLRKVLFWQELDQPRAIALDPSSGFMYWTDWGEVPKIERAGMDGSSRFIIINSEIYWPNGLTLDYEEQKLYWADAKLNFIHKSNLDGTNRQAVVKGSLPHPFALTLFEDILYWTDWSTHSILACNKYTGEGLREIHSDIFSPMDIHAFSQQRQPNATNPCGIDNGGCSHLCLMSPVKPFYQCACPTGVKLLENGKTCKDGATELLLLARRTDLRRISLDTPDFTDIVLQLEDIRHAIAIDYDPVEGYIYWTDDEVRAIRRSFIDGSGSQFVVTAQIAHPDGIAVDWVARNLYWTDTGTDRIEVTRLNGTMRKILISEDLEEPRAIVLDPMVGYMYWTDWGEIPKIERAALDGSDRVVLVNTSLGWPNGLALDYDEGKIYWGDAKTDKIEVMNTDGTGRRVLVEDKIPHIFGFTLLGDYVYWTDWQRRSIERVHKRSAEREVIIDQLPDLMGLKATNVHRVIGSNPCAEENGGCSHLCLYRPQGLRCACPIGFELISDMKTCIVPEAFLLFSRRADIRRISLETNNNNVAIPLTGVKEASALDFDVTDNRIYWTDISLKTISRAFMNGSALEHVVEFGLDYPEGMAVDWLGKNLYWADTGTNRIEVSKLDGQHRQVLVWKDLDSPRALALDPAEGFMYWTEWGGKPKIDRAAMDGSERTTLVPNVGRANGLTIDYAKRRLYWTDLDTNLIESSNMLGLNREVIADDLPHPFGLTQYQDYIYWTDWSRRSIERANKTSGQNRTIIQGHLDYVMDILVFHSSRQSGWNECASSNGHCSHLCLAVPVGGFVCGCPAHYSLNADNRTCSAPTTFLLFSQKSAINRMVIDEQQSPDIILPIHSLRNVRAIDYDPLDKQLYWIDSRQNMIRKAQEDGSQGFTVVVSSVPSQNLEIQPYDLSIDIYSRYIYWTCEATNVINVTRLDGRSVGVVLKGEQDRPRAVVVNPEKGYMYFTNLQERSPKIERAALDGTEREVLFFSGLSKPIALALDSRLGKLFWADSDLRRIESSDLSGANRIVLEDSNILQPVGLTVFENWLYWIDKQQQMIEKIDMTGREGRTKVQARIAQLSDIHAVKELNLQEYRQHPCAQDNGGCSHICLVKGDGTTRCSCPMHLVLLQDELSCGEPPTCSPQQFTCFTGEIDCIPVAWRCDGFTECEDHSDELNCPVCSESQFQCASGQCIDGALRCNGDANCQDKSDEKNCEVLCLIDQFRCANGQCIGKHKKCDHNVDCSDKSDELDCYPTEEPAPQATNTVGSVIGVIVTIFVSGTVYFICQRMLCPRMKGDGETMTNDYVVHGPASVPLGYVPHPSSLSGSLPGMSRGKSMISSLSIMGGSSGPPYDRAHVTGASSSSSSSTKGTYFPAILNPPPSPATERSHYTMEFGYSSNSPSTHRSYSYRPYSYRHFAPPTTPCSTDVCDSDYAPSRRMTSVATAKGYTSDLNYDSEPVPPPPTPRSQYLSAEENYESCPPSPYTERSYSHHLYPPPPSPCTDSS

B1: Mesd: recombinant wild-type mouse Mesd, polyhistidine tail at the N-terminus, lacks the signal peptide, expressed in E. coli (protein)
chain: ADTPGEATPPPRKKKDIRDYNDADMARLLEQWEKDDDIEEGDLPEHKRPSAPIDFSKLDPGKPESILKMTKKGKTLMMFVTVSGNPTEKETEEITSLWQGSLFNANYDVQRFIVGSDRAIFMLRDGSYAWEIKDFLVSQDRCAEVTLEGQMYPGKGGGSKEKNKTKPEKAKKKEGDRKPRASKEDNRAGSRREDL
modifications: left off: small tags and cut ends
notes: recombinant wild-type mouse Mesd, polyhistidine tail at the N-terminus, lacks the signal peptide, expressed in E. coli
Regarding B1, the “Inhibition of ^125I-Mesd degradation” value with LRP6 [1] (500 nM unlabeled competitor) is reported as “completely”. For the same molecule, in the assay with LRP6 [1] (HT1080 cells transduced with LRP6), the “^125I-Mesd degradation level” value turned out to be 320 fmoles/mg cell protein. In addition, the “Effect on binding of Myc-DKK1 to LRP6 at the cell surface” value in the assay with LRP6 [2] is listed as “completely blocked”. For the same molecule, in the assay with cytosolic β-catenin, the “Change in cytosolic β-catenin levels” value was “no significant change”.
